From US20150191542A1 (INNATE PHARMA S A, published 2015)

T1: MICA*004 expressed on C1R transfectant cells (human, UniProt Q29983 24-297, Glycosylated on cells; the letters do not carry this.)
T1 construct: also called C1R-MICA*004; C1R-MICA*04
T1 chain: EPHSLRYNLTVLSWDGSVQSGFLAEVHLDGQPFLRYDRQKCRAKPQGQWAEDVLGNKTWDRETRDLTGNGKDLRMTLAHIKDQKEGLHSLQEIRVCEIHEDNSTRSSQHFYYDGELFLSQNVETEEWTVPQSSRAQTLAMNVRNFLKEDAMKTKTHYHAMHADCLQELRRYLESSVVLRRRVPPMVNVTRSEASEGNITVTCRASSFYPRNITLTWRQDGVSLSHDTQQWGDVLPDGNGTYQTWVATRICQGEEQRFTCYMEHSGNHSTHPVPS

T2: MICA*008 expressed on C1R transfectant cells (human, UniProt Q29983 24-297, Glycosylated on cells; the letters do not carry this.)
T2 construct: also called C1R-MICA*008; C1R-MICA*08
T2 chain: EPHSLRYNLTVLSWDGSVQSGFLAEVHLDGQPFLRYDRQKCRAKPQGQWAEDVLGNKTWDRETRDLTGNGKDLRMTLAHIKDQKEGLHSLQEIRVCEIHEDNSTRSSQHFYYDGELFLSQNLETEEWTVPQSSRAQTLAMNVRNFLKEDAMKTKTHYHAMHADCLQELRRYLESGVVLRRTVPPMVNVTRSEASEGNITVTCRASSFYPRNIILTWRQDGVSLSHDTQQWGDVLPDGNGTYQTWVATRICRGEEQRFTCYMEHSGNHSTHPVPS

T3: MICA*001 extracellular domain recombinant protein (full extracellular domain with a BirA or a Poly-His Tag) (human, UniProt Q29983 24-297)
T3 construct: it may be the same as MICA*001-His; also called MICA extracellular domain recombinant protein; not shown: BirA or poly-His tag
T3 sequence: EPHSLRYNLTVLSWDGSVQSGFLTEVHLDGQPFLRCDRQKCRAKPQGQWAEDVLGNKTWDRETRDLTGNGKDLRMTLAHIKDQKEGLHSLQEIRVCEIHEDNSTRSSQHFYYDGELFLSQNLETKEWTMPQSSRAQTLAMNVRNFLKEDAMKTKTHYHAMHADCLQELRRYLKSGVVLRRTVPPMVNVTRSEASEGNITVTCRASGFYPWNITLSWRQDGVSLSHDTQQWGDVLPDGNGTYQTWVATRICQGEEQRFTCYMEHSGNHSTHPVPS

T4: MICA*007 expressed on C1R transfectant cells (human, UniProt Q29983 24-297, Glycosylated on cells; the letters do not carry this.)
T4 construct: also called C1R-MICA*007; C1R-MICA*07
T4 chain: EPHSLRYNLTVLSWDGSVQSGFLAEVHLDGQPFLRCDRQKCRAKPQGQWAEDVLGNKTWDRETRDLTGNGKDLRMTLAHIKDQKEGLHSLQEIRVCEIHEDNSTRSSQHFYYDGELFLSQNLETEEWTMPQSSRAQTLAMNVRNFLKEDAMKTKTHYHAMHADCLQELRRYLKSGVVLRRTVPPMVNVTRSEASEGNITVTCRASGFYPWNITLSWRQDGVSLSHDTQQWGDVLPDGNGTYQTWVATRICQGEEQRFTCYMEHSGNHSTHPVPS


Key:
[1] = molecular target: T1, MICA*004 expressed on C1R transfectant …; assay: flow cytometry on C1R-MICA*004 cells, 3-parameter logistic fit
Procedure: (§1) The binding of antibodies obtained from the first and second immunization series (including 9C10, 20C6 and 16A8) were tested for binding to MICA-expressing CR1 transfectant cells C1R-MICA*001, C1R-MICA*004, C1R-MICA*007 and C1R-MICA*008 (Pr. A. Steinle, Eberhard-Karls University Tuebingen, Germany) described in Salih et al. (2003) Blood 102(4): […]. Binding was analyzed by flow cytometry.
(§2) Cells were harvested and stained in PBS 1×/BSA 0,2%/EDTA 2 mM buffer during 30 minutes at 4° C. using a dose-range of the anti-MICA mAbs. After two washes in staining buffer, cells were stained for 30 min at 4° C. with goat anti-mouse (H+L)-PE polyclonal antibodies (1/200). After two washes, stainings were acquired on a BD FACS Canto II and analyzed using the FlowJo software.
(§3) Antibodies 9C10, 20C6 and 16A8 bound to each of the C1R-MICA*001, C1R-MICA*004, C1R-MICA*007 and C1R-MICA*008 cells (see FIGS. 3A, 3B and 3C for antibodies 9C10, 20C6 and 16A8 respectively). […] EC50 values are shown in Table C in μg/ml (calculated using a 3-parameter logistic fit).

[2] = molecular target: T2, MICA*008 expressed on C1R transfectant …; assay: flow cytometry on C1R-MICA*008 cells, 3-parameter logistic fit
Procedure: as §1, §2, §3

[3] = molecular target: T3, MICA*001 extracellular domain …; assay: ELISA, 3 µg/ml recombinant protein coated
Procedure: 3 μg/ml of the indicated MICA recombinant proteins were coated overnight in 96-well plates in PBS 1× at 4° C. All subsequent steps were performed at room temperature. After washes with PBS 1×/Tween 0.05%, plates were saturated for an additional 2 hours in PBS 1×/BSA 1%. Two additional washes were performed prior adding the tested anti-MICA mAb in PBS 1×/BSA 1% for 2 hours. Antibodies were washed and a horseradish peroxidase conjugated goat polyclonal anti-mouse IgG (GAM-HRP) in PBS 1×/BSA 1% was added for 1 hour. Final washing steps were performed and TMB substrate was added to reveal the ELISA (5 to 20 min in the dark) and 1M HCl was added to stop the enzymatic reaction. O.D. was measured at 450 nm.
9C10 binds to MICA extracellular domain recombinant-protein but not MICA extracellular domain α3 recombinant protein. Antibody 16A8, however, bound to both MICA extracellular domain recombinant protein […] MICA extracellular domain α3 recombinant protein. Therefore, it can be concluded from this ELISA experiment that the binding site on MICA of 9C10 antibodies includes the α1 and/or α2 domains while antibody 16A8 binds to MICA within the α3 domain. […] BAMO1 is a commercially available anti-MICA specific for α1α2 domain and BAMO3 is a commercially available anti-MICA specific for α3 domain.

[4] = molecular target: T4, MICA*007 expressed on C1R transfectant …; assay: flow cytometry on C1R-MICA*007 cells, 3-parameter logistic fit
Procedure: as §1, §2, §3

Row | EC50 [1] | EC50 [2] | binding result [3] | EC50 [4] | Binder
1 | 0.2 µg/mL | 0.15 µg/mL | binds | 7.93 µg/mL | antibody 9C10 (antibody, V domains shown, Biotinylated when captured in the SPR assays (9C10-Biot); the sites are not given., Murine hybridoma antibody of IgG2b isotype as tested; also called 9C10-Biot) VH: QVQLQQPGAELVRPGTSVNLSCKASGYSFTRYWMNWVKQRPGQGLEWIGMIHPSDSETRLNQKFKDKATLTVDKSSSTAYMQLSSPTSEDSAVYYCGYGNFFYVMDYWGQGTSVTVSS VL: DILLTQSPAILSVSPGERVSFSCRASQSIGTSIHWYQQRTNGSPRLLIKFASESISGIPSRFSGSGSGTDFTLNINSVESEDIADYYCQQSNFWPFTFGSGTKLEVK
2 | 0.31 µg/mL | 0.33 µg/mL | binds | 0.74 µg/mL | antibody 16A8 (antibody, V domains shown, Murine hybridoma antibody of IgG2a isotype as tested; also called 16A8-Biot) VH: EVQLVESGGGLVKPGGSLKLSCAASGFTFSRYAMSWVRQTPEKRLEWVATIFSGGSYTYYPDSVKGRFTISRDNANNTLYLQMSSLKAEDTAMYFCARPNWERTFDYWGQGTTLTVSS VL: not shown
